Test results taken from patent US20110311550A1 (Scripps Research, published 2011).

B1: MAb AR1A (antibody, V domains shown)
VH: LEQSGAEVKKPGSSVKVSCRASGSPYSSYTITWVRQAPGQGLEWMGGIILMTGKANYAQKFQGRVTITADRATATAYMEMSSLTSDDTAIYYCARDPYVYAGDDVRSLSRWGQGTPVIVSS
VL: not shown
notes: also called IgG1 of Fab B2
B2: MAb AR2A (antibody, V domains shown)
VH: LEQSGAEMKKPGASLKVSCKTSGYTFDDYGVTWVRQAPGQGLEWMGWISAYSGNTFYARKFQGRVTMTTDPSTRTAYMELRSLRSDDTAVYFCARDRGLAINGVVFPYFGLDVWGQGTTVTVSS
VL: ELTQSPVSLPVTPGEPASISCRSSQSLLHSNGNHYLDWYLQKPGQSPQLLMYLGSNRASGVPDRFSGSGSGTDFTLKISRVEAEDVGVYYCMQGLQTPWTFGQGTKVEIKR
notes: also called IgG1 of Fab G
B3: MAb AR1B (antibody, V domains shown)
VH: LESGGGLVQPGGSLRLSCEASGYYFSSFAMSWVRQTPGKGLEWVSSIAGGTLGRTSYRDSVKGRFTISRDNSKNTVFLHMNNLRPEDTAVYYCAKDPLLFAGGPNWFDHWGQGTLVTVSS
VL: not shown
notes: also called IgG1 of Fab D1
B4: MAb AR3C (antibody, V domains shown)
VH: LEQSGAEVKKPGSSVKVSCETSGGTLDNYALNWVRQAPGQGLEWIGGVVPLFGTTRNAQKFQGRVTISDDKSTGTGHMELRSLRSEDTAVYYCVRSVTPRYCGGGFCYGEFDYWGQGTLVTVSS
VL: ELTQSPATLSVSPGERATLSCRASQSVSSNLAWYQQKPGQAPRLLIYGASTRATGIPARFSGSGSGTEFTLTVSRLEPEDSAVYFCQQYYRSPLTFGGGTKVEIKR
notes: also called IgG1 of Fab H3

These binders were tested against T1, E1E2 complex of HCV isolate H77 (genotype 1a), wild type (HCV isolate H77, UniProt P27958 192-383; P27958 384-746) (assay: competition ELISA on H77 E1E2; competitor m37 (Fab N1)).

First: B1
Second: B2
The “% residual binding” value of the first is lower: 83% for the first, 85% for the second.

First: B3
Second: B4
The “% residual binding” value of the first is lower: 95% for the first, 146% for the second.

Each binder was assayed against T1, E1E2 complex of HCV isolate H77 … (assay: competition ELISA on H77 E1E2; competitor m41 (Fab O1)).

First: B1
Second: B2
The “% residual binding” value of the first is lower: 76% for the first, 88% for the second.

Compared with B3, B4 is lower in “% residual binding” value: 95% for the first, 77% for the second.

The binders below were run against T1, E1E2 complex of HCV isolate H77 … (assay: competition ELISA on H77 E1E2; competitor m42 (Fab P1)).

Compared with B1, B2 is lower in “% residual binding” value: 86% for the first, 82% for the second.

Going from B3 to B4, the “% residual binding” value rises from 97% to 131%.

These binders were tested against T2, vaccinia-expressed E1E2 complex, isolate HCV-1 (genotype 1a) (hepatitis C virus, isolate HCV-1, UniProt P26664 192-383; P26664 384-746) (assay: competition ELISA on HCV-1 E1E2; competitor m27 (3/11)).

First: B1
Second: B2
The “% residual binding” value of the first is lower: 66% for the first, 94% for the second.

First: B3
Second: B4
The “% residual binding” value of the first is higher: 61% for the first, 44% for the second.

The binders below were run against T1, E1E2 complex of HCV isolate H77 … (assay: competition ELISA on H77 E1E2; competitor m44 (Fab P2)).

Compared with B1, B2 is lower in “% residual binding” value: 91% for the first, 82% for the second.

Going from B3 to B4, the “% residual binding” value rises from 99% to 140%.

The binders below were run against T2, vaccinia-expressed E1E2 complex, … (assay: competition ELISA on HCV-1 E1E2; competitor m7 (AR3D)).

Going from B1 to B2, the “% residual binding” value rises from 54% to 75%.

First: B3
Second: B4
The “% residual binding” value of the first is higher: 84% for the first, 12% for the second.

The binders below were run against T2, vaccinia-expressed E1E2 complex, … (assay: competition ELISA on HCV-1 E1E2; competitor m29 (2/69A)).

Going from B1 to B2, the “% residual binding” value falls from 86% to 82%.

Going from B3 to B4, the “% residual binding” value falls from 85% to 68%.

The binders below were run against T2, vaccinia-expressed E1E2 complex, … (assay: competition ELISA on HCV-1 E1E2; competitor m1 (AR1A)).

First: B1
Second: B2
The “% residual binding” value of the first is lower: 15% for the first, 76% for the second.

First: B3
Second: B4
The “% residual binding” value of the first is lower: 15% for the first, 34% for the second.

Each binder was assayed against T2, vaccinia-expressed E1E2 complex, … (assay: competition ELISA on HCV-1 E1E2; competitor m28 (1/39)).

Compared with B1, B2 is higher in “% residual binding” value: 84% for the first, 90% for the second.

Going from B3 to B4, the “% residual binding” value falls from 89% to 83%.

What follows are binders tested against T2, vaccinia-expressed E1E2 complex, … (assay: competition ELISA on HCV-1 E1E2; competitor m31 (11/20)).

B1 and B2 are the same in “% residual binding” value: 84% for the first, 84% for the second.

Compared with B3, B4 is lower in “% residual binding” value: 79% for the first, 62% for the second.

These binders were tested against T2, vaccinia-expressed E1E2 complex, … (assay: competition ELISA on HCV-1 E1E2; competitor m5 (AR3B)).

Going from B1 to B2, the “% residual binding” value rises from 53% to 92%.

Compared with B3, B4 is lower in “% residual binding” value: 80% for the first, 12% for the second.

The binders below were run against E1E2 (Env) of HCV isolate OH8 (genotype 1b) on HCVpp (hepatitis C virus, isolate OH8) (assay: cell-based or functional assay).

B1 and B2 cannot be ordered by “Neutralizing activity (IC50) on HCVpp” value: greater than 50 µg/mL for the first, greater than 50 µg/mL for the second.

Compared with B3, B4 is lower in “Neutralizing activity (IC50) on HCVpp” value: greater than 50 µg/mL for the first, 5 µg/mL for the second.

These binders were tested against E1E2 (Env) of HCV isolate UKN4.21.16 (genotype 4) on HCVpp (hepatitis C virus, isolate UKN4.21.16) (assay: cell-based or functional assay).

Compared with B1, B2 is lower in “Neutralizing activity (IC50) on HCVpp” value: greater than 50 µg/mL for the first, 1 µg/mL for the second.

Compared with B3, B4 is lower in “Neutralizing activity (IC50) on HCVpp” value: greater than 50 µg/mL for the first, 1 µg/mL for the second.

These binders were tested against E1E2 (Env) of HCV isolate UKN2B1.1 (genotype 2b) on HCVpp (hepatitis C virus, isolate UKN2B1.1) (assay: cell-based or functional assay).

Compared with B1, B2 is lower in “Neutralizing activity (IC50) on HCVpp” value: greater than 50 µg/mL for the first, 10 µg/mL for the second.

First: B3
Second: B4
The “Neutralizing activity (IC50) on HCVpp” value of the first is higher: greater than 50 µg/mL for the first, 10 µg/mL for the second.

These binders were tested against E1E2 (Env) of HCV isolate UKN5.15.7 (genotype 5) on HCVpp (hepatitis C virus, isolate UKN5.15.7) (assay: cell-based or functional assay).

First: B1
Second: B2
The “Neutralizing activity (IC50) on HCVpp” value of the first is higher: greater than 50 µg/mL for the first, 10 µg/mL for the second.

Going from B3 to B4, the “Neutralizing activity (IC50) on HCVpp” value falls from greater than 50 µg/mL to 1 µg/mL.

Each binder was assayed against VSV (control pseudotype virus envelope) (assay: cell-based or functional assay).

B1 and B2 cannot be ordered by “Neutralizing activity (IC50) on control pseudotype virus” value: greater than 50 µg/mL for the first, greater than 50 µg/mL for the second.

B3 and B4 cannot be ordered by “Neutralizing activity (IC50) on control pseudotype virus” value: greater than 50 µg/mL for the first, greater than 50 µg/mL for the second.

These binders were tested against E1E2 (Env) of HCV isolate UKN1B12.16 (genotype 1b) on HCVpp (hepatitis C virus, isolate UKN1B12.16) (assay: cell-based or functional assay).

B1 and B2 cannot be ordered by “Neutralizing activity (IC50) on HCVpp” value: greater than 50 µg/mL for the first, greater than 50 µg/mL for the second.

First: B3
Second: B4
The “Neutralizing activity (IC50) on HCVpp” value of the first is higher: greater than 50 µg/mL for the first, 1 µg/mL for the second.

What follows are binders tested against T1, E1E2 complex of HCV isolate H77 … (assay: cell-based or functional assay).

Going from B1 to B2, the “Neutralizing activity (IC50) on HCVpp” value falls from greater than 50 µg/mL to 1 µg/mL.

Going from B3 to B4, the “Neutralizing activity (IC50) on HCVpp” value falls from greater than 50 µg/mL to 1 µg/mL.

The binders below were run against E1E2 (Env) of HCV isolate H (genotype 1a) on HCVpp (hepatitis C virus, isolate H) (assay: cell-based or functional assay).

First: B2
Second: B4
The “Neutralizing activity (IC50) on HCVpp” value of the first is 5-fold higher: 5 µg/mL for the first, 1 µg/mL for the second.

What follows are binders tested against E1E2 (Env) of HCV isolate UKN2A1.2 (genotype 2a) on HCVpp (hepatitis C virus, isolate UKN2A1.2) (assay: cell-based or functional assay).

First: B1
Second: B2
The “Neutralizing activity (IC50) on HCVpp” value of the first is higher: greater than 50 µg/mL for the first, 5 µg/mL for the second.

Compared with B3, B4 is lower in “Neutralizing activity (IC50) on HCVpp” value: greater than 50 µg/mL for the first, 10 µg/mL for the second.

The binders below were run against E1E2 (Env) of HCV isolate J6 (genotype 2a) on HCVpp (hepatitis C virus, isolate J6, UniProt P26660 192-383; P26660 384-750) (assay: cell-based or functional assay).

B1 and B2 cannot be ordered by “Neutralizing activity (IC50) on HCVpp” value: greater than 50 µg/mL for the first, greater than 50 µg/mL for the second.

Going from B3 to B4, the “Neutralizing activity (IC50) on HCVpp” value falls from greater than 50 µg/mL to 10 µg/mL.

What follows are binders tested against T2, vaccinia-expressed E1E2 complex, … (assay: competition ELISA on HCV-1 E1E2; competitor m36 (A4)).

Compared with B1, B2 is lower in “% residual binding” value: 97% for the first, 92% for the second.

First: B3
Second: B4
The “% residual binding” value of the first is higher: 103% for the first, 93% for the second.

Each binder was assayed against T2, vaccinia-expressed E1E2 complex, … (assay: competition ELISA on HCV-1 E1E2; competitor m2 (AR1B)).

First: B1
Second: B2
The “% residual binding” value of the first is lower: 15% for the first, 57% for the second.

Compared with B3, B4 is higher in “% residual binding” value: 6% for the first, 91% for the second.

What follows are binders tested against T2, vaccinia-expressed E1E2 complex, … (assay: competition ELISA on HCV-1 E1E2; competitor m20 (CBH-2)).

First: B1
Second: B2
The “% residual binding” value of the first is lower: 83% for the first, 93% for the second.

Compared with B3, B4 is lower in “% residual binding” value: 98% for the first, 65% for the second.
